Assay results published in US20240361320A1.

Biological target: SARS-CoV-2 3CL^pro enzyme (Recombinant derived from Escherichia coli, ab277614, ABCAM; SEQ ID NO:2) (SARS-CoV-2) (UniProt P0DTC1)

## 3CL^pro specific antibody (Rabbit-derived, NBP3-07062, Novus Biologicals; binding to SEQ ID NO:3)
  time to maximal binding: 20 s
